{"source": "paper PMC4506495", "key": {"[1]": {"biological_target": "Magnetospirillum gryphiswaldense MSR-1 Fur C9L/M14L/M16V-triple mutant (Magnetospirillum gryphiswaldense MSR-1)", "test": "crystal structure; Fur-Mn2+ with the 25-bp feoAB1 operator dsDNA (three base-pair mutations), 2.6 Å (SeMet form 2.82 Å)"}, "[2]": {"biological_target": "Magnetospirillum gryphiswaldense MSR-1 Fur C9L/M14L/M16V-triple mutant (Magnetospirillum gryphiswaldense MSR-1)", "test": "crystal structure; holo-Fur with 1 mM MnCl2, 1.9 Å; 10% PEG3000, 0.1 M CHES pH 9.0"}, "[3]": {"biological_target": "Magnetospirillum gryphiswaldense MSR-1 ferric uptake regulator (Fur), wild type (Magnetospirillum gryphiswaldense MSR-1)", "test": "AUC; analytical ultracentrifugation of apo-Fur in solution"}, "[4]": {"biological_target": "Magnetospirillum gryphiswaldense MSR-1 ferric uptake regulator (Fur), wild type (Magnetospirillum gryphiswaldense MSR-1)", "test": "crystal structure; apo-Fur without transition metal ions, 1.55 Å; crystals from (NH4)2SO4, 0.1 M sodium citrate pH 5.5"}, "[5]": {"biological_target": "Magnetospirillum gryphiswaldense MSR-1 ferric uptake regulator (Fur), wild type (Magnetospirillum gryphiswaldense MSR-1)", "test": "SEC; size-exclusion chromatography of apo-Fur in solution"}, "[6]": {"biological_target": "T1, MgFur E108A/H125A (metal site 2 mutant) E108A;H125A (Magnetospirillum gryphiswaldense MSR-1) (UniProt V6F4Q0)", "T1 sequence": "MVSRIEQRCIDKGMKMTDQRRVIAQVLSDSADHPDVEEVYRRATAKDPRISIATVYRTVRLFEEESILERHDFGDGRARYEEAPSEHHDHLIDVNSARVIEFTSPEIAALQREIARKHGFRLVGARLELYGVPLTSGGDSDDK", "test": "SPR", "settings": "1 mM Mn2+, SPR: 20 mM Tris-HCl pH 8.0, 150 mM NaCl, 1 mM MnCl2, 0.005% Tween20, 25 C, EMSA: 40 mM HEPES pH 7.0, 125 mM NaCl, 2 mM FeSO4/MnCl2/EDTA, footprinting: …"}, "[7]": {"biological_target": "T2, MgFur WT (Magnetospirillum gryphiswaldense MSR-1) (UniProt V6F4Q0)", "T2 sequence": "T1 sequence with A108E, A125H", "test": "SPR", "settings": "1 mM Mn2+, SPR: 20 mM Tris-HCl pH 8.0, 150 mM NaCl, 1 mM MnCl2, 0.005% Tween20, 25 C, EMSA: 40 mM HEPES pH 7.0, 125 mM NaCl, 2 mM FeSO4/MnCl2/EDTA, footprinting: …"}, "[8]": {"biological_target": "T3, MgFur K15A K15A (Magnetospirillum gryphiswaldense MSR-1) (UniProt V6F4Q0)", "T3 sequence": "T1 sequence with K15A, A108E, A125H", "test": "SPR", "settings": "1 mM Mn2+, SPR: 20 mM Tris-HCl pH 8.0, 150 mM NaCl, 1 mM MnCl2, 0.005% Tween20, 25 C, EMSA: 40 mM HEPES pH 7.0, 125 mM NaCl, 2 mM FeSO4/MnCl2/EDTA, footprinting: …"}}, "note": "Residue numbers refer to the chain shown, from its start.", "data": [{"substance": "Magnetospirillum gryphiswaldense MSR-1 Fur C9L/M14L/M16V-triple mutant (natural protein)", "values": [{"measurement": "stoichiometry N", "setting": "[1]", "result": 2}, {"measurement": "stoichiometry N", "setting": "[2]", "result": 2}]}, {"substance": "Magnetospirillum gryphiswaldense MSR-1 ferric uptake regulator (Fur), wild type (natural protein)", "values": [{"measurement": "stoichiometry N", "setting": "[3]", "result": 2}, {"measurement": "stoichiometry N", "setting": "[4]", "result": 2}, {"measurement": "stoichiometry N", "setting": "[5]", "result": 2}]}, {"substance": "TTAATCGCAACTCATTCGCAATTGC (double strand) [feoAB1 operator (SPR)]", "values": [{"measurement": "Kd", "setting": "[6]", "result": 0.272, "unit": "µM"}, {"measurement": "Kd", "setting": "[7]", "result": 0.085, "unit": "µM"}, {"measurement": "Kd", "setting": "[8]", "result": 0.977, "unit": "µM"}]}]}
